{
  "source": "patent US20160200763A1",
  "about": "(RAMOT AT TEL AVIV UNIVERSITY, published 2016)",
  "target": "Bacterially expressed Purified GSK-3β Wild-Type (WT) (human, UniProt P49841 1-420)",
  "sequence (P49841 other isoform, or with tags, fused parts or gaps limits assumed)": "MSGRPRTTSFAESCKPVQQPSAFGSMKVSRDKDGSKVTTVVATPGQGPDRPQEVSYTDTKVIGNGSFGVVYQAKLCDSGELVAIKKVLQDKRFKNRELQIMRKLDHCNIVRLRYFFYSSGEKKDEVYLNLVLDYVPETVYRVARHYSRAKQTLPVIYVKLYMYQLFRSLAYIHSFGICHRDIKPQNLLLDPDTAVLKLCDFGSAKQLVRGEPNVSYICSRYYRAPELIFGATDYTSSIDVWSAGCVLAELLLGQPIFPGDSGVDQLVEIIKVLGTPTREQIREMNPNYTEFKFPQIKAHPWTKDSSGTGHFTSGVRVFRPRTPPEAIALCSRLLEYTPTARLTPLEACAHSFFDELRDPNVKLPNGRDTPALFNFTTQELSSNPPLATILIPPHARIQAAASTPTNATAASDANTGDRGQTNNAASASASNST",
  "assay": "cell-based or functional assay",
  "note": "Square brackets hold non-standard residues; d marks the D form. Ends that are not written are not given here. * marks the point of attachment. Myristoyl = CCCCCCCCCCCCCC(=O)*; pS = N[C@@H](COP(=O)(O)O)C(=O)O",
  "data": [
    {"binder": "KEAPPSPPQ[pS]P", "note": "[L807]", "values": [
      {"measurement": "IC50, inhibition of GSK-3β phosphorylation of pIRS-1 (in vitro kinase assay)", "value": 16, "unit": "µM"}
    ]},
    {"binder": "KEAPPAPPQ[pS]P", "note": "[L803]", "values": [
      {"measurement": "IC50, inhibition of GSK-3β phosphorylation of pIRS-1 (in vitro kinase assay)", "value": 200, "unit": "µM"}
    ]},
    {"binder": "Myristoyl-GKEAPPAPPQ[pS]P", "note": "[L803-mts]", "values": [
      {"measurement": "IC50, inhibition of GSK-3β phosphorylation of pIRS-1 (in vitro kinase assay)", "value": 40, "unit": "µM"}
    ]}
  ]
}
